According to US20180362652A1 (Biogen, published 2018):

How the values were obtained:
[1] = target: T1, rat Clec4b2 (full-length, cell surface) (rat); experiment: dilution titration direct FACS on transiently transfected 293E cells
T1 construct: 293E cells co-transfected with rat FcεRIγ; Genbank NM_001005896; also called surface rat Clec4b2; closest rat homolog of human BDCA2
T1 chain: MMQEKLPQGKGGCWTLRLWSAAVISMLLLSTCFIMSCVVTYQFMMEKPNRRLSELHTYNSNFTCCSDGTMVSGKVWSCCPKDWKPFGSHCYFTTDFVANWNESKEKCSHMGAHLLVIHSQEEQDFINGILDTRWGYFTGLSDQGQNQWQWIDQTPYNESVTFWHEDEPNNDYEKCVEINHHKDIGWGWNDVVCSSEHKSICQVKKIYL

[2] = target: T2, cynomolgus monkey BDCA2 (full-length, cell surface, E73 SNP form) (cynomolgus monkey, UniProt Q8WTT0 1-213 (human entry)); experiment: indirect method: flow cytometry of pDCs in cynomolgus whole blood, unlabelled BIIB059 titrated, free BDCA2 detected with the competitor BIIB059-A647 at 10 ug/mL [panel Cynomolgus monkey 6]
T2 construct: also called cyno BDCA2; surface cynomolgus monkey BDCA2
T2 chain: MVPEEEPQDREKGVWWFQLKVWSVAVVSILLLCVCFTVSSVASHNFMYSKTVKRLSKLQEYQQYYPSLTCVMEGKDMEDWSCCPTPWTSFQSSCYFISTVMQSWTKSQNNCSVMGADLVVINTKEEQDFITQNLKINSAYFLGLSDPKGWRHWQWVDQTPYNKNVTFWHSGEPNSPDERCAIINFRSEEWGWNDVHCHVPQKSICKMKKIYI
Experimental: (§1) The MFI of PE (open symbols, graphed on the left y-axis) or A647 (closed symbols, graphed on the right y-axis) was calculated in FlowJo software, and graphed using GraphPad Prism software (four-parameter nonlinear regression curve fit of log-transformed data).

[3] = target: T2, cynomolgus monkey BDCA2 (full-length, …); experiment: indirect method: flow cytometry of pDCs in cynomolgus whole blood, unlabelled BIIB059 titrated, free BDCA2 detected with the competitor BIIB059-A647 at 10 ug/mL [panel Cynomolgus monkey 7]
Experimental: as §1

binding result [1]: no binding
IC50 (read off the curve) [2]: ~1 µg/mL
IC50 (read off the curve) [3]: ~2 µg/mL
B1: BIIB059 (antibody, human IgG1, kappa)
heavy: not shown
light: DIQLTQSPSSLSASVGDRVTITCKASQSVDYDGDSYMNWYQQKPGKAPKLLIYAASTLESGVPSRFSGSGSGTDFTLTISSLQPEDFATYYCQQANEDPRTFGQGTKVEIKRTVAAPSVFIFPPSDEQLKSGTASVVCLLNNFYPREAKVQWKVDNALQSGNSQESVTEQDSKDSTYSLSSTLTLSKADYEKHKVYACEVTHQGLSSPVTKSFNRGEC
notes: Humanized IgG1 kappa, mature chains; in some assays labelled with Alexa647; also called hu24F4 H4/L1 C95A; H4-L1-C95A (YL751/YL746)
